Measurements: paper PMC8395316 (2021)

Target: Spike-RBD RBD (Severe acute respiratory syndrome …, UniProt P0DTC2)
Assay: ELISA

B1: Platelet Factor 4 (protein)
chain: SQVRPRHITSLEVIKAGPHCPTAQLIATLKNGRKICLDLQAPLYKKIIKKLLES
  Kd: ~180 nM
